pIC50: −log10 of the molar value.
What was measured:
[1] = target: light-activated rhodopsin (bovine rod outer segment membranes) (bovine) (UniProt P02699); experiment: ELISA, MBP fusion protein on immobilised light-activated rhodopsin
[2] = target: human thrombin receptor (PAR1) (human) (UniProt P25116); experiment: ELISA, purified MBP-Gαq on purified reconstituted PAR1 with thrombin receptor activating peptide
Sequence of human thrombin receptor (PAR1) (human) (P25116 42-425): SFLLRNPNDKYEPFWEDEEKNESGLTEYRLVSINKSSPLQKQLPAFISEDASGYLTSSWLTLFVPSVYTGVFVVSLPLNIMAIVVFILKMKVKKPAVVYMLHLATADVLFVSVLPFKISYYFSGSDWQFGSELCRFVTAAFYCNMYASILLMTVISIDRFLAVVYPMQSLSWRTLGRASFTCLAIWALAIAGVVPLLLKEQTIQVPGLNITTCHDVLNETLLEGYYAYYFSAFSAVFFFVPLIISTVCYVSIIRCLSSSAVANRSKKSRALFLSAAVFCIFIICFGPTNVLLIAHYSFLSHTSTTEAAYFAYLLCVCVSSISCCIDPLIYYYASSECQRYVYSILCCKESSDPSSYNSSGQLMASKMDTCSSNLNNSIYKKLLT

Sequence of light-activated rhodopsin (bovine rod outer segment membranes) (bovine) (P02699 whole entry, the tested form may be a part): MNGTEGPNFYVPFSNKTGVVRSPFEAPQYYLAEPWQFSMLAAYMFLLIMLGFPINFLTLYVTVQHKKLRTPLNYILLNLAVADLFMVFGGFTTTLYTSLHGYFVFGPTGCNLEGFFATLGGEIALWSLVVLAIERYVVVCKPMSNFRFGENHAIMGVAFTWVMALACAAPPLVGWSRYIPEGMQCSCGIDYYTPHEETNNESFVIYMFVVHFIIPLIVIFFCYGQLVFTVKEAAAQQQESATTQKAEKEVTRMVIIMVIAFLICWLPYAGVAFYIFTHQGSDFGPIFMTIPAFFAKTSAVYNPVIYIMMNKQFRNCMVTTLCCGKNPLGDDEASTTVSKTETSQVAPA

| Substance | pIC50 [1] | pIC50 [2] |
| --- | --- | --- |
| MBP-Gαt340-350K341R fusion protein (pELM17) | 5.22 |  |
| maltose binding protein-Gαq (MBP-Gαq), native Gq peptide fusion |  | 6.67 |

Reference: patent publication US20040018558A1
